The Kd is the equilibrium constant for the complex coming apart.

Here are results for seven molecules from paper PMC11018626, “Sm-like protein Rof inhibits transcription termination factor ρ by binding site obstruction and conformational insulation” (Nature Communications, 2023).

For series [1], the target named is T1, Transcription termination factor ρ F89S (E. coli) (E. coli, UniProt P0AG30 1-419, F89S).
T1 construct: Transcription termination factor Rho, E. coli, with F89S
The series can be described thus: SEC; analytical SEC, Superdex S200 PC 3.2 column, 5 µM ρ and 90 µM Rof/variants mixed in reaction buffer (20 mM Tris-HCl pH 8.0, 120 mM KOAc, 5 mM Mg(OAc)2, 2 mM DTT), 32 °C 10 min, run at 4 °C; fractions analysed by SDS-PAGE. As to conditions: both partners purified. (SEC sorts molecules by how far they enter the pores of the column.)

In series [2] the target is T2, Transcription termination factor ρ K115E (E. coli) (E. coli, UniProt P0AG30 1-419, K115E).
T2 construct: Transcription termination factor Rho, E. coli, with K115E
The series is described as above. As to conditions: both partners purified.

Series [3] addresses Transcription termination factor ρ, wild type (E. coli) (E. coli, UniProt P0AG30 1-419). Kind of series: cell-based or functional assay.
Series [4] has as its target T3, Rho (transcription termination factor) (Escherichia coli, UniProt P0AG30 1-419). The series can be described thus: fluorescence anisotropy; 5 mM Mg2+; no Rof; PBS binding; Anisotropy: 20 mM Na-HEPES pH 7.5, 150 mM KCl, 5% glycerol, 5 mM MgCl2, 0.5 mM TCEP; 5 µM FAM-dC15 or 2 µM FAM-rU12; temperature not stated. As to conditions: protein: recombinant; chain copies: 6; label: 5'-FAM; single strand.

Series [5] deals with T3, Rho (transcription termination factor). Kind of series: fluorescence anisotropy; 2 mM ADP-BeF3, 10 µM unlabeled dC15 blocking PBS; SBS binding / ring closure; Anisotropy: 20 mM Na-HEPES pH 7.5, 150 mM KCl, 5% glycerol, 5 mM MgCl2, 0.5 mM TCEP; 5 µM FAM-dC15 or 2 µM FAM-rU12; temperature not stated. As to conditions: protein: recombinant; chain copies: 6; label: 5'-FAM; single strand. A general note: In fluorescence polarisation assays a small probe gives low polarisation when free and higher when bound to something large.

Series [6] shares this target. The series can be described thus: cryo-EM; ADP-BeF3; closed ring, 2.9 Å; Anisotropy: 20 mM Na-HEPES pH 7.5, 150 mM KCl, 5% glycerol, 5 mM MgCl2, 0.5 mM TCEP; 5 µM FAM-dC15 or 2 µM FAM-rU12; temperature not stated. As to conditions: protein: recombinant; chain copies: 6; boxB hairpin.
A further series addresses Rho R88E (Escherichia coli, UniProt P0AG30 1-419, R88E). The series can be described thus: analytical SEC; Anisotropy: 20 mM Na-HEPES pH 7.5, 150 mM KCl, 5% glycerol, 5 mM MgCl2, 0.5 mM TCEP; 5 µM FAM-dC15 or 2 µM FAM-rU12; temperature not stated. As to conditions: protein: recombinant; chain copies: 6; boxB hairpin.
In another series the target is Rho F89S (Escherichia coli, UniProt P0AG30 1-419, F89S). The series is described as above. As to conditions: protein: recombinant; chain copies: 6; boxB hairpin.

Numbering of substitutions follows the chain as printed. In names and notes the source's numbering stands.

B1: Rof, wild type, tag-less (E. coli) (natural protein)
chain: MNDTYQPINCDDYDNLELACQHHLMLTLELKDGEKLQAKASDLVSRKNVEYLVVEAAGETRELRLDKITSFSHPEIGTVVVSES
notes: Rof (YaeO), E. coli; codon-optimised rof gene; the C-terminal residue is printed as S84 (84-residue form); the residue numbers used (I8 to S84) fit the 84-residue form; also called Rof^wt; ecRof; source: E. coli RIL (BL21), purified (Ni2+-NTA, TEV protease, Superdex 75)
In the case of B1, the binding result in series [1] and in series [2] was “binds” each time.

B2: Rof E17A (E. coli) (natural protein)
chain: B1 chain with E17A
Take B2: in series [3], the “transcripts terminated by ρ in vitro (λ tR1 template; 25 nM ρ, 5 µM Rof variant); 87% in the absence of Rof” value was found to be 25%.

B3: Rof Y13A (E. coli) (natural protein)
chain: B1 chain with Y13A
On to B3, for which, in series [3], the “transcripts terminated by ρ in vitro (λ tR1 template; 25 nM ρ, 5 µM Rof variant); 87% in the absence of Rof” value was 90%.

B4: Rof D14A (E. coli) (natural protein)
chain: B1 chain with D14A
B4: in series [3], the “transcripts terminated by ρ in vitro (λ tR1 template; 25 nM ρ, 5 µM Rof variant); 87% in the absence of Rof” value is 86%.

Regarding CCCCCCCCCCCCCCC (ssDNA) [dC15], in series [4], the Kd came to 1 µM.

Take UUUUUUUUUUUU (ssRNA) [rU12]: in series [5], the binding result is “binds”.

B5: rut RNA (lambda tR1) (structured_RNA)
RNA: GGGAUAACCCCGCUCUUACACAUUCCAGCCCUGAAAAAGGGCAUCAAAUUAAACCACACCUAUGGUGUAUGUCAAAUUAAACCACA
Take B5: the values for the binding result (in series [6]; in the series with Rho R88E; with Rho F89S) were “binds”, “no binding” and “binds”, respectively.
